{"source": "a protein production outcome set (Wang et al. 2014)", "data": [{"assay": "label from the status in PepcDB records", "values": [{"sequence": "MRRVFGAKKNTEPPPSIQDASDRINKRGDSVEDKIKKLDVELCKYKEQLKKTRPGPAQEAVKARAMRVLKQKKMYEGQRDMLYNQTFNLDQVSFAAEGLKDAQQTMTALKSANKELKGMMKTVKIQDIDNLQDEMMDLMDVSSEIQESLGRSYNIPDGLDEDDLMGELDALEADMGNETEADGMPSYLQPDTETDYDSELNLPAAPTGHNGAPHGRAQVNF", "protein production": "failed"}, {"sequence": "MRRVISIFRKLSAVYCHTGNFAEGIRVCKYALGRFTEMEDKYKCIFTFNMSLYYNYLGEYGKALNAITGFESVIKATYEDRYYKVLLLKADCYYGAERYAESLSIYNKLISITLKDDFNNLCVYYNNMTQVYLRMGKRDMAVNCINTVINNLHNISDDFEALPQIYAELGKSYLMMADNDKSIKYLTIALKLSKDFKYYSVTKDILNELSKIKGNSNKLKLKDEFIILTENMGRSYDSLNHSLVFNIIQYYTRLGDVASINELCEYCKERKVG", "protein production": "failed"}, {"sequence": "MRRVLMVNFGVLLLFCFGVLSNSFGQDNGGDSDINSTTAVYIVTLRQASSLHLFQQEAEEVKRVRDQSKHGDTSKFTRPKLQPRNISRSRYWRSRRSAIAQAHDSLLRNALKGEKYIKLYSFHYLINGFAVFVSSQQAETLSRRREVANIVLDFSVRTATTYTPQFMGLPKGAWVKEGGYETAGEGIVIGFIDTGIDPTHPSFNGTDTSQRQYPIPNHFSGVCEVTPDFPSGSCNRKLVGARHFAQSAITRGIFNSSEDYASPFDGDGHGTHTASIAAGNHGVSAVVSGHNFGSASGIAPRAHISVYKALYKSFGGFAADVVAAIDQAAQDGVDILSLSITPNRRPPGVATFFNPLDMAMLSAVKAGIFVVQAAGNTGPSPKSMSSFSPWIFTVGAASHDRDYSNSIVLGNNVSIPGVGLALRTDEGKKYTMISALDALKNKSSVVDKDMYVGECQDYGSFDKDVIRGNLLICSYSIRFVLGLSTIKQALAVAKNLSAKGVVFYMDPYVLGFQINPTPMDMPGIIIPSAEDSKVLLKYYNSSLVRDGTTKEIVRFGAVAAIAGGQNANFSNRAPKIMYYSARGPDPQDSLFNDADILKPNLVAPGNSIWGAWSSAATESTEFEGESFAMMSGTSMAAPHVAGVAALVKQKFRKFSPSAIASALSTTSVLFDNKGEAIMAQRAYANPDQTISPATPFDMGNGFVNATAALDPGLIFDTSFEDYMSFLCGINGSAPVVFNYTGTNCLRNNATISGSDLNLPSITVSKLNNTRTVQRLMTNIAGNETYTVSLITPFDVLINVSPTQFSIASGETKLLSVILTAKRNSSISSFGGIKLLGNAGHIVRIPVSVTVKIASKQ", "protein production": "failed"}, {"sequence": "MRSLCAGGRAIGLSGPDSRRHHRPQGPSEGASLILPDLSSSIAVGALIYWMLLLTIKHVFADFIFQNKWMAMGKDAKTGWALPLLAHCSVHLVMTTLLMLILAPRYWYIGVIDFLIHLAIDRLKGFLVATYDVTNQDRWFWWLIGTDQALHHLTGFGLAIVLAANP", "protein production": "failed"}, {"sequence": "MRSQALRADVLMLITAVIWGSAFVAQTSGMNHIGPFLYSGLRFALGSLCLLPLVLRKTPTDRQPEPLLNRGLLLGGVLMGLALALGINLQQVGLMFTTVTNAGFITGLYVIVVPLLGLLIGHKTGLGTWLGAVLAVVGMFLLSVSDSFHVASGDWLQLIGAFVWGGHVILVGVFAGRHDPIRLAFLQFATCAVVSLILALCLEPLRWEAIVGAGPAILYGGVVAVGIGYTLQVIAQKDAIASHAAIILSLEAVFAAIAGAWLLDESLQARGYFGCALMLSGMLVAQLWPQKPHSSTTTQRA", "protein production": "failed"}, {"sequence": "MRSTKTNAMEAIMKKFMGIATAAVFGLGIFTTSAKAETIVTTDVLNVRENPTTESKVVGKLLDGYKVNVLHTENGWSKVQLNSGKEAFISADYTKDTYYVTANVLNVRAGANTDSEILGKLKKDDVIETTHQVQNDWIQFEYNGKTAYVHVPYLTGKAPVKVQPVAKVEKTTTVQDTAKVREAAKAQEVAETQAKAKAVEATKAREAAEAQAEVKAQEAAKAREAAKAQEAAKAQADAEAQAEVKAQEAAKAREAAKAQADAEAQAAAKAQEAAKAREAAKAQEAAEAREAAKAQEAREAAKAQEAAKAQKSATQQPVAKETETSTPSSSRELRVVATAYTADPLENGYKAGDQVKSALGHNLTANPNMKLIAVDPSVIPLGSKVWVEGYGVAIAGDTGGAIKGNKIDVLMPDKGSSSSWGRKTVTVKVLNLEHHHHHH", "protein production": "not failed"}, {"sequence": "MRSYRAQGPLPGFYHYYPGVPAVVGVRVEERVNFCPAVWNTGLSADPPLFGVSISPKRFTHGLLLKARRFSASFHPFGQKDLVHWLGSHSGREVDKGQAPHFLGHTGVPILEGAYAAYELELLEVHTFGDHDLFVGRVVAVWEEEGLLDEKGRPKPGLALLYYGKGLYGRPAEETFAP", "protein production": "not failed"}, {"sequence": "MRTERWWQDTSVTDHLFRQFGRFEFIQATRLLRHVPYHMDQTQWASEFQFGSSLALSFPKTEIEHLAQSDERIEMTSLVVGLTGTQGALPYTYTNKLKQSSRQQRREIQAFLGLFNHTLTVQYVDASLVHHLPVRYEVEQENHYLNILHALNGYISSHHQHNELDEYFAEFAGLMQGQNNTAHALTTMLTCIFKQKVMVKEFIREKFYLSDEQKTCLGGAQPSLLGINTFCGDTIEQIDGKIEIQIGPLKRKQYLDFLPSGRASTQLKHILATWCSPTLLVDLRLILDQDDVQPFCLDSVHQMGLGQGVFLTSQASNQDNQDTCYSLIGAVA", "protein production": "failed"}, {"sequence": "MRTKNILAALALFLGISLPSLVEAANAYATGNVNVRTGPGTRYPRTGTIPAGATLTIRGCLNGYSWCEVIFAGQSGWASSNYLQATYQNRRRPVIHIGPVIGLPVIVHKPRPPHWEHRPRPPRPPHWGHRPRPPHWDHRPRPPRPQPRLEHHHHHH", "protein production": "not failed"}, {"sequence": "MRTLVAPTHAPKRRMLLALLATPALALAQPAWTQQPPPVKLDVPYVPTPDDAVARMLEMADVTAQDTVIDLGSGDGRIAIAAVRDRGARSAMGVDIDPERIAEARANARKAGLADRVTFVQQDLFDTDISKATVLTMYLLPDVNLKLRPRILNSLAPGTRVVSHAFTMGEWDSDRYELVDGRSLYLWVVPAHAAGDWQVEDPAGPFTLSVRQDFQKVTASAQRQGERLGVAEAALRGTDLRFTVDAGSGPRTYVGRIQGDRMTAVQAPGNESGWRATRRAP", "protein production": "failed"}, {"sequence": "MRTPAWLGSGMPLLFVLLWSTGFLGAKFGLPYAEPFTFLAIRLLLAAALLAAFALLSGAPWPGSARLAGHVAVAGLLVHGLYLGGVFLAIEHGMSAGLTSLLVGLQPLATAALAGIWLGEQVSRRQWLGLALGLAGVALVVLGRIHGGADGLAWAAVLVALAAITCGTLYQKRFCGGMDLRTGGVVQYLASGALLGLAALLFESREVQWSTPFVLTLGWLVLGLSFGAVGLLYTLIRHGAASKVASLFYLVPPVTALASWLLFDERLAPAAIGGMLLVMLGVALVNWPGRRA", "protein production": "failed"}, {"sequence": "MRTPRRAPEPVQVVKQRRDATLRALVDGVPYIQFLGIEFERRGDELTGILPFDQKLIGNPLLPAIHGGVTAAFLEVTAIITLSWTYLWEDMESGAIDAKGLASGGMPRLPKTIDISTDYLRSGLPRDAYARARIVRSGRRYASVHVEAWQDNRDRLFAQATGHFLMPDRRDS", "protein production": "failed"}, {"sequence": "MRTVPSLSMSKSRCNMLASTLDRPSPEDSQTLAEVERTITSGVGALCFSRGLERRYQTETRLQRREFLTAMGIGGSLIYNLFLITDWLILRDVFVYVAIGRLCLITPMFIIMLILARRLASRRAMETTAAVATVLCSLMPMVVMTYSESPYQIFYQLGMLLIMVYCTMIQQLPLRHAAAALSCMLIIQLVTTYIADFADFVIWQANALLFVSTVMLLLMASYFLERASRLSYLFALRGRLLQVQLLEFARTDALTRLFNRRYQDEVLTSVWERARKKQANVAIILLDIDHFKSYNDNYGHPQGDVCLKLLCKAIQQSANDGGAVAFRFGGEEVLVLMNADADQATKMAETLKATVAALKLPHPALGEDAHVTISLGVASGIAPLITYDTLISAADNALYAAKHAGRNCVFCQP", "protein production": "failed"}, {"sequence": "MRVAVAGGTGLVGKYVVAELRAAGHTPVVLARSHGVDLTTGAGLAGKLSGSDAVIDVANIVTTRRKTAVDFFSRTTGHLIAAARAGGVAHLVTLSIVGSDEVDFGYYFGKRAQEELVRDGAVPWTVVRATQFFEFPEPLLNGVSPVVVVPRMLTRPVAAQDVAQTLVEHAVEGPAGMAPEIAGPDQLDMVDMARRIARARGSRRLVVPVTLPGKVGKAMTTGGLLPRGEYLRGRRTFDAHLASLRAA", "protein production": "failed"}, {"sequence": "MRVDGLNGRPHSHWVINKVIGDSTMTFSNAQRLRPVRRHAIFQACALGFALALASGSAFAAAALTQPAQDPAKVAPASLAVSKIDFKRGEDGTGRLILQFNGQGASPDLRTQGDNVLVDISNARLPAELQRPLNVTDFATPVQRVEVKPSGSGSQLVLSTKGAFDSLAYQTGNEYVVEITPRKGQPAVGGVSPAAVTQAAAQIAARGYSGRPVTFNFQDVPVRTVLQLIAEESNLNIVASDTVQGNVTLRLMNVPWDQALDIVLRAKGLDKRRDGGVVWVAPQPELAKFEQDKEDARIAIENREDLITDYVQINYHNAAVIFKALTEAKGIGGGGGSGGGQGGQGGAGQQDNGFLSPRGRLVADERTNTLMISDIPKKVAQMRELISHIDRPVDQVLIESRIVIATDTFARDLGARFGIIGATGRGILSGSLDSNTNYLNTSAKRASEIANGGTSTTLPAHLFPSGLNVNLGAGGGFTTNTPGGLAYTLLGSNFNLDIELSAMQQEGRGEVVSNPRIVTANQREGVIKQGREIGYVTISGSGAGGGSQANVQFKEVLLELKVTPTITNDNRVFLNMNVKKDEVARLIDLPLYGTVPEINRREINTAVLVGDGETVVIGGVYEFTDRESVSKVPFLGDIPFLGNLFKKRGRSKEKAELLVFVTPKVLRVASATR", "protein production": "failed"}, {"sequence": "MRVDRSSSSSTVSLLEGKIYVAGGFDPKTHTWSSVTSPSAVIRNESVAEHKSLGLGGKFYLFGYDSDKSAVVYNPKEDNVLFYRFHGLFHWYDYKGNFWKQVNGLGPVACTEKVAILAALDTFDNAR", "protein production": "failed"}, {"sequence": "MRVGVLGAKGKVGATMVRAVAAADDLTLSAELDAGDPLSLLTDGNTEVVIDFTHPDVVMGNLEFLIDNGIHAVVGTTGFTAERFQQVESWLVAKPNTSVLIAPNFAIGAVLSMHFAKQAARFFDSAEVIELHHPHKADAPSGTAARTAKLIAEARKGLPPNPDATSTSLPGARGADVDGIPVHAVRLAGLVAHQEVLFGTEGETLTIRHDSLDRTSFVPGVLLAVRRIAERPGLTVGLEPLLDLH", "protein production": "not failed"}, {"sequence": "MRVISRNLTAWSAGLIVVAIFLGAWLSHPLHRISGFAVTPAPVGTESLPPKASYSSRFASSDLNDFVHSSAVTALPGGDLMSVWFAGSREGAGDVEIRTSRFDAQAEEWGGEQVLATRESTQTGTGKYIRKLGNPVIALAPDNRLWLFYVSVSVGGWAGSSVNAMVSSDMGASWSAPRQLVTSPFLNISTLVRGAPVFHADGSIGLPVYHEFLGKFAEYLYLSADGEVIDKFRISRGKNSLQPTVVPLDGQRAVALLRYAGETFHRVLASRTEDGGQTWSEPYPLAPSNPNSSLAAVGVPGKGLLVALNDLREGRFKLSLYSTDEQMKVWRPLPDLDKSPDPLGTPFSLEVYKEVIGQGFRASSGALRQPMEAEFLSNLDQRVCAPQGCDFEYEYPYFIRSPDGLYHLVYSWNNTFIKHVSFNEAWLAEQLL", "protein production": "failed"}, {"sequence": "MRVIVAYDGSPGADKAVGFALGLKDSIDKYFILYVSRDITDLSGQLVYISDETVEQQERLADEIVNKAKSLMTRSGVDYEVMKVDSNGEDISKVIVKIAQEKGIDVIFTGTRKLRGLDKFFLGSISSGILALSSCPVIVVP", "protein production": "not failed"}, {"sequence": "MRVLHETTQELANWQYYFAIAVFLITYAIIISEKINRAVIALLGAALMVIMGVVDLHNAFTKHIEWGTITLLIGMMILVNITSKSGVFQYVAIKAAKGAQGNPIKILISLSLLTALGSAFLDNVTTVLLVVPVTLSITRILQVNPVPYLLSEIIFSNIGGTATLIGDPPNIMIGSANKHLDFNAFLLNLAPIVIIIIAVTAAILYFMYRKQLIADPVQVKKLMSLDEKQYIKDPVLMKKSLTVLGLTIVGFMTHSIFHVDAAIIALTGATVLMLIGVKEHEIEEVFASVEWVTIFFFAGLFVLVGGLIDIGLIKMLAQKVIGITGGDISYASILILWVSGIASATIDNIPFVATMIPLINDMAVGLGLSPADAQIDVLWWALALGACLGGNGTLIGASANVIVAGIASREGHKFSYMDFLKVGFPIMIVSLIISHIYIYVRYLM", "protein production": "failed"}]}]}
